According to patent US20160264681A1 (ACCELERON PHARMA, published 2016):

T1: Activin A (UniProt P08476 311-426)
T1 sequence (looked up): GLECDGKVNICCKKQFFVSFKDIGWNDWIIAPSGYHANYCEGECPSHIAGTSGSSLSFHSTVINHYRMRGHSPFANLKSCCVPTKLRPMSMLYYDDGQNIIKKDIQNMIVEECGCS

T2: GDF11 (UniProt O95390 299-407)
T2 sequence (looked up): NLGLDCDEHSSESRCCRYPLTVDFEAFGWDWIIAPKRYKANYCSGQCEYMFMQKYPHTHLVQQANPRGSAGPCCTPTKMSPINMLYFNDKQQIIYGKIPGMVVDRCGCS

B1: ActRIIb-hFc (R64, 20-132) (Fc fusion)
chain: GRGEAETRECIYYNANWELERTNQSGLERCEGEQDKRLHCYASWRNSSGTIELVKKGCWLDDFNCYDRQECVATEENPQVYFCCCEGNFCNERFTHLPEAGGPEVTYEPPPTAGGGTHTCPPCPAPELLGGPSVFLFPPKPKDTLMISRTPEVTCVVVDVSHEDPEVKFNWYVDGVEVHNAKTKPREEQYNSTYRVVSVLTVLHQDWLNGKEYKCKVSNKALPVPIEKTISKAKGQPREPQVYTLPPSREEMTKNQVSLTCLVKGFYPSDIAVEWESNGQPENNYKTTPPVLDSDGSFFLYSKLTVDKSRWQQGNVFSCSVMHEALHNHYTQKSLSLSPGK
B2: ActRIIb-hFc (R64, 20-131) (Fc fusion)
chain: GRGEAETRECIYYNANWELERTNQSGLERCEGEQDKRLHCYASWRNSSGTIELVKKGCWLDDFNCYDRQECVATEENPQVYFCCCEGNFCNERFTHLPEAGGPEVTYEPPPTGGGTHTCPPCPAPELLGGPSVFLFPPKPKDTLMISRTPEVTCVVVDVSHEDPEVKFNWYVDGVEVHNAKTKPREEQYNSTYRVVSVLTVLHQDWLNGKEYKCKVSNKALPVPIEKTISKAKGQPREPQVYTLPPSREEMTKNQVSLTCLVKGFYPSDIAVEWESNGQPENNYKTTPPVLDSDGSFFLYSKLTVDKSRWQQGNVFSCSVMHEALHNHYTQKSLSLSPGK
B3: ActRIIb-hFc (R64, 20-128) (Fc fusion)
chain: GRGEAETRECIYYNANWELERTNQSGLERCEGEQDKRLHCYASWRNSSGTIELVKKGCWLDDFNCYDRQECVATEENPQVYFCCCEGNFCNERFTHLPEAGGPEVTYEPGGGTHTCPPCPAPELLGGPSVFLFPPKPKDTLMISRTPEVTCVVVDVSHEDPEVKFNWYVDGVEVHNAKTKPREEQYNSTYRVVSVLTVLHQDWLNGKEYKCKVSNKALPVPIEKTISKAKGQPREPQVYTLPPSREEMTKNQVSLTCLVKGFYPSDIAVEWESNGQPENNYKTTPPVLDSDGSFFLYSKLTVDKSRWQQGNVFSCSVMHEALHNHYTQKSLSLSPGK
B4: ActRIIB(20-134)-hFc (Fc fusion)
chain: GRGEAETRECIYYNANWELERTNQSGLERCEGEQDKRLHCYASWRNSSGTIELVKKGCWLDDFNCYDRQECVATEENPQVYFCCCEGNFCNERFTHLPEAGGPEVTYEPPPTAPTGGGTHTCPPCPAPELLGGPSVFLFPPKPKDTLMISRTPEVTCVVVDVSHEDPEVKFNWYVDGVEVHNAKTKPREEQYNSTYRVVSVLTVLHQDWLNGKEYKCKVSNKALPVPIEKTISKAKGQPREPQVYTLPPSREEMTKNQVSLTCLVKGFYPSDIAVEWESNGQPENNYKTTPPVLDSDGSFFLYSKLTVDKSRWQQGNVFSCSVMHEALHNHYTQKSLSLSPGK
B5: ActRIIb-hFc (R64, 22-131) (Fc fusion)
chain: GEAETRECIYYNANWELERTNQSGLERCEGEQDKRLHCYASWRNSSGTIELVKKGCWLDDFNCYDRQECVATEENPQVYFCCCEGNFCNERFTHLPEAGGPEVTYEPPPTGGGTHTCPPCPAPELLGGPSVFLFPPKPKDTLMISRTPEVTCVVVDVSHEDPEVKFNWYVDGVEVHNAKTKPREEQYNSTYRVVSVLTVLHQDWLNGKEYKCKVSNKALPVPIEKTISKAKGQPREPQVYTLPPSREEMTKNQVSLTCLVKGFYPSDIAVEWESNGQPENNYKTTPPVLDSDGSFFLYSKLTVDKSRWQQGNVFSCSVMHEALHNHYTQKSLSLSPGK
B6: ActRIIb-hFc (R64, 21-131) (Fc fusion)
chain: RGEAETRECIYYNANWELERTNQSGLERCEGEQDKRLHCYASWRNSSGTIELVKKGCWLDDFNCYDRQECVATEENPQVYFCCCEGNFCNERFTHLPEAGGPEVTYEPPPTGGGTHTCPPCPAPELLGGPSVFLFPPKPKDTLMISRTPEVTCVVVDVSHEDPEVKFNWYVDGVEVHNAKTKPREEQYNSTYRVVSVLTVLHQDWLNGKEYKCKVSNKALPVPIEKTISKAKGQPREPQVYTLPPSREEMTKNQVSLTCLVKGFYPSDIAVEWESNGQPENNYKTTPPVLDSDGSFFLYSKLTVDKSRWQQGNVFSCSVMHEALHNHYTQKSLSLSPGK
B7: ActRIIb-hFc (R64, 24-131) (Fc fusion)
chain: AETRECIYYNANWELERTNQSGLERCEGEQDKRLHCYASWRNSSGTIELVKKGCWLDDFNCYDRQECVATEENPQVYFCCCEGNFCNERFTHLPEAGGPEVTYEPPPTGGGTHTCPPCPAPELLGGPSVFLFPPKPKDTLMISRTPEVTCVVVDVSHEDPEVKFNWYVDGVEVHNAKTKPREEQYNSTYRVVSVLTVLHQDWLNGKEYKCKVSNKALPVPIEKTISKAKGQPREPQVYTLPPSREEMTKNQVSLTCLVKGFYPSDIAVEWESNGQPENNYKTTPPVLDSDGSFFLYSKLTVDKSRWQQGNVFSCSVMHEALHNHYTQKSLSLSPGK
B8: ActRIIb-hFc (R64, 23-131) (Fc fusion)
chain: EAETRECIYYNANWELERTNQSGLERCEGEQDKRLHCYASWRNSSGTIELVKKGCWLDDFNCYDRQECVATEENPQVYFCCCEGNFCNERFTHLPEAGGPEVTYEPPPTGGGTHTCPPCPAPELLGGPSVFLFPPKPKDTLMISRTPEVTCVVVDVSHEDPEVKFNWYVDGVEVHNAKTKPREEQYNSTYRVVSVLTVLHQDWLNGKEYKCKVSNKALPVPIEKTISKAKGQPREPQVYTLPPSREEMTKNQVSLTCLVKGFYPSDIAVEWESNGQPENNYKTTPPVLDSDGSFFLYSKLTVDKSRWQQGNVFSCSVMHEALHNHYTQKSLSLSPGK

target: T1, Activin A; experiment: cell-based or functional assay

| IC50 (ng/mL), reporter gene assay, conditioned media [ng/mL] | Binder |
| --- | --- |
| 32 | B1 |
| 44 | B2 |
| 158 | B3 |
| 2 | B4 |

target: T2, GDF11; experiment: cell-based or functional assay

| IC50 (ng/mL), reporter gene assay, conditioned media [ng/mL] | Binder |
| --- | --- |
| 87 | B1 |
| 120 | B2 |
| 130 | B3 |
| 45 | B4 |

target: T1, Activin A; experiment: cell-based or functional assay; remark: another data set of the same source

| IC50 (ng/mL), reporter gene assay, conditioned media [ng/mL] | Binder |
| --- | --- |
| 100 | B5 |
| 201 | B2 |
| 325 | B6 |
| 105 | B7 |
| 43 | B8 |

target: T2, GDF11; experiment: cell-based or functional assay; remark: another data set of the same source

| IC50 (ng/mL), reporter gene assay, conditioned media [ng/mL] | Binder |
| --- | --- |
| 71 | B5 |
| 183 | B2 |
| 121 | B6 |
| 69 | B7 |
| 60 | B8 |
